Data: article PMC10920922

How the values were obtained:
[1] = target: TaSG-D1-GFP (wheat (Triticum aestivum))
[2] = target: TaSG-D1^E286K-GFP (Indian dwarf wheat (Triticum sphaerococcum))

TaPIF4-Myc (natural protein)
share of TaPIF4 associated with and protected by the kinase after 3 h heat stress: TaPIF4 protein still detectable on co-transformation in N. benthamiana leaves (23%) less that of the control (12%) [1]: 11%
share of TaPIF4 associated with and protected by the kinase after 3 h heat stress: TaPIF4 protein still detectable on co-transformation in N. benthamiana leaves (88%) less that of the control (12%) [2]: 76%
